Data taken from US20210055300A1 (EISAI R AND D MANAGEMENT, published 2021).

Tests used:
[1] = biological target: T1, refolded rhAPOA4-His monomer (human, UniProt P06727 21-396); assay: ELISA, antigen captured by anti-6xHis antibody, hybridoma supernatant
T1 construct: not shown: C-terminal histidine tag
T1 sequence: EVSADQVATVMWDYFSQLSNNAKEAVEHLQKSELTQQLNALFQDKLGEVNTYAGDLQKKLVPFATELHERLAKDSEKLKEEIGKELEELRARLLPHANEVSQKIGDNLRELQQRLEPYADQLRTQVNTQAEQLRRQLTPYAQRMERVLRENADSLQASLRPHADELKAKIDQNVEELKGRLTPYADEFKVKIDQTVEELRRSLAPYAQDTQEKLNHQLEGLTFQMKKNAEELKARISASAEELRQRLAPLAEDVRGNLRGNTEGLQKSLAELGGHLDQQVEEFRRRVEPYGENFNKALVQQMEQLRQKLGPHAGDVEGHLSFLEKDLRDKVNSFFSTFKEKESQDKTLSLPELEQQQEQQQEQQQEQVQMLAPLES
Method: Using the culture supernatant of the hybridoma obtained in (1), the reactivity to rhAPOA4-His was evaluated by ELISA as follows.
50 μL/well of a 50 mM Tris buffer (pH 7.5) containing 2 μg/mL of an anti-6×His rabbit polyclonal antibody (anti-6×His antibody, manufactured by Bethyl Laboratories) was added to a 96-well plate (manufactured by Nunc), and incubation was performed at 4° C. overnight. After removing the anti-6×His antibody solution, blocking was performed by adding 100 μL/well of 50 mM Tris-buffered saline solution (pH 7.5) containing 0.01% Tween 20 and 5% skim milk, and the plate was left at room temperature for 1 hour. After washing the well three times with Tris-buffered saline solution (pH 7.5) (washing solution) containing 0.01% Tween 20, rhAPOA4-His prepared in Example 1 or refolded rhAPOA4-His monomer prepared by the method described below was added at a concentration of 450 ng/mL (10 nM) by 50 μL/well, and incubation was performed at room temperature for 1 hour. The refolded rhAPOA4-His monomer was prepared by diluting rhAPOA4-His prepared in Example 1 two-fold with a 50 mM Tris-buffered saline solution (pH 7.5) containing 8 M urea (manufactured by Wako Pure Chemical Industries, Ltd.), leaving at room temperature for 30 minutes, and diluting 50-fold with a 50 mM Tris-buffered saline solution (pH 7.5) (reaction solution) containing 4% Block Ace (manufactured by DS Pharma Biomedical Corporation) and 0.01% Tween 20. After washing the well three times with the washing solution, the culture supernatant of the hybridoma was added to the well and incubation was performed at room temperature for 1 hour. After removing the added culture supernatant, the well was washed three times with the washing solution. A horseradish peroxidase-labeled anti-mouse IgG antibody (manufactured by Jackson ImmunoResearch Laboratories) appropriately diluted with the reaction solution was added at 50 μL/well, incubation was performed at room temperature for 1 hour, and then the well was washed 5 times with the washing solution. […]

APOA4 in human serum [2] = biological target: T2, APOA4 in human serum (human, UniProt P06727 21-396); assay: sandwich ELISA on diluted human serum, labeled detection antibody with No. 30 as capture
T2 construct: Native protein in serum of healthy humans (monomer and dimer); also called human serum APOA4; APOA4 in the specimen
T2 sequence: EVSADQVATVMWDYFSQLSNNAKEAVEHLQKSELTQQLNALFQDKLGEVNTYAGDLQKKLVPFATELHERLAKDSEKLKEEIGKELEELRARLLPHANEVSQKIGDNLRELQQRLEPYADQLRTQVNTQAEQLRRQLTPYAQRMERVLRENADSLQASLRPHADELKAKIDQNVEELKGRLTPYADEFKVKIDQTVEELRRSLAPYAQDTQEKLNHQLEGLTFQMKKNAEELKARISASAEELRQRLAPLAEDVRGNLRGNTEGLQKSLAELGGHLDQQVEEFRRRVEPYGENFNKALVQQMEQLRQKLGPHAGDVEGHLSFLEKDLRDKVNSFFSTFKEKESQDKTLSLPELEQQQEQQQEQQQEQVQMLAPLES

rhAPOA4-His monomer = biological target: T3, rhAPOA4-His monomer (human, UniProt P06727 21-396); assay: statement of the description; experiment is the ELISA of Example 4 (FIG. 1)
T3 construct: also called APOA4 monomer; monomer of rhAPOA4-His; not shown: C-terminal histidine tag
T3 sequence: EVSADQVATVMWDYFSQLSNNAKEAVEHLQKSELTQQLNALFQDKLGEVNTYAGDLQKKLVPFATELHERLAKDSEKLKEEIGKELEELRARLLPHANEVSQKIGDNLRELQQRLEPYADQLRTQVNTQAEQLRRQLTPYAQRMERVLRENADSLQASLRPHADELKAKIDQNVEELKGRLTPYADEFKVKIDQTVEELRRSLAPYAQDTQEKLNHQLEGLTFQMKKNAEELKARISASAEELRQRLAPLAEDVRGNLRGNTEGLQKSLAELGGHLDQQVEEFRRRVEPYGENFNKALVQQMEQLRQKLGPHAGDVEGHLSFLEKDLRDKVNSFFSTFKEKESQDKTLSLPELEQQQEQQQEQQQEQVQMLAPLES
Method: (§1) 50 μL/well of a 50 mM Tris buffer (pH 7.5) containing 2 μg/mL of an anti-6×His rabbit polyclonal antibody (anti-6×His antibody, manufactured by Bethyl Laboratories) was added to a 96-well plate (manufactured by Nunc), and incubation was performed at 4° C. overnight. After removing the anti-6×His antibody solution, blocking was performed by adding 100 μL/well of 50 mM Tris-buffered saline solution (pH 7.5) containing 0.01% Tween 20 and 5% skim milk, and the plate was left at room temperature for 1 hour. After washing the well three times with a Tris-buffered saline solution (pH 7.5) (washing solution) containing 0.01% Tween 20, the rhAPOA4-His monomer or dimer prepared in Example 2 was diluted so as to be 450 ng/mL with a 50 mM Tris-buffered saline solution (pH 7.5) (reaction solution) containing 1% Block Ace (manufactured by DS Pharma Biomedical) and 0.01% Tween 20, and added thereto at 50 μL/well. After incubating at room temperature for 1 hour, the well was washed three times with the washing solution, and then the anti-human APOA4 monoclonal antibody obtained in Example 3 was diluted with the reaction solution so as to be 1 μg/mL and added thereto at 50 μL/well. After the incubation at room temperature for 1 hour, the well was washed three times with the washing solution. Subsequently, 50 μL/well of a horseradish peroxidase-labeled anti-mouse IgG antibody (manufactured by Jackson ImmunoResearch Laboratories) appropriately diluted with the reaction solution was added, incubation was performed at room temperature for 1 hour, and the well was washed 5 times with the washing solution. 50 μL/well of a TMB (3,3′,5,5′-tetramethylbenzidine) solution was added and incubation was performed at room temperature for 15 minutes. The reaction was stopped by adding 50 μL/well of 1N H₂SO₄ in the equivalent volume to that of the TMB solution, and the absorbance of 450 nm was measured using a microplate reader (manufactured by ThermoFisher Scientific).

rhAPOA4-His dimer = biological target: T4, rhAPOA4-His dimer (human, UniProt P06727 21-396); assay: as above
T4 construct: also called APOA4 dimer; dimer of rhAPOA4-His; not shown: C-terminal histidine tag
T4 sequence: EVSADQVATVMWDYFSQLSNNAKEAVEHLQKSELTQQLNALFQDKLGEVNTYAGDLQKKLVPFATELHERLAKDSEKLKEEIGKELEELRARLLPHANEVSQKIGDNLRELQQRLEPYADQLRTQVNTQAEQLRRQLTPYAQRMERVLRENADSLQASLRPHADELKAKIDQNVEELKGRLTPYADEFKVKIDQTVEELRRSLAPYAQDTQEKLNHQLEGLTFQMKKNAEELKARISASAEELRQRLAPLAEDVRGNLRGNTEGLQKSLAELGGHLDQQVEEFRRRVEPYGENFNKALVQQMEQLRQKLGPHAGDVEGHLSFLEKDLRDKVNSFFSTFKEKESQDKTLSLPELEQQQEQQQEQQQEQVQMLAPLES
Method: as §1

APOA4 in human serum [3] = biological target: T2, APOA4 in human serum; assay: sandwich ELISA, labeled detection antibody
Method: (§2) Anti-human APOA monoclonal antibody No. 30 was adjusted to a concentration of 2 μg/mL with a 50 mM Tris buffer solution (pH 7.5). Antibody No. 30 solution was added to a Maxisorp cup (NUNC, manufactured by C8 Maxisorp) at 100 μL/well, the Maxisorp cup was put in a wet box and allowed to stand at 4° C. overnight, and antibody No. 30 was coated on the well. After removing antibody No. 30 solution by suction, a 50 mM Tris-buffered saline solution (pH 7.5) (blocking solution) containing 5% skim milk, 0.1% sodium azide, and 0.01% Tween 20 was added at 200 μL/well, and then the cup was left at room temperature for 2 hours or at 4° C. for 1 day or more (hereinafter, the prepared Maxisorp cup is referred to as “antibody No. 30 cup”). […] After stopping the reaction by injecting 100 μL/well of 0.5 M H₂SO₄, the absorbance was measured at a wavelength of 450 nm, and an APOA concentration was calculated using the rhAPOA4-His of a known concentration as a standard substance.

[4] = biological target: T5, recombinant human APOA4 in which a histidine tag is bound to the C-terminal of human APOA4 (human, UniProt P06727 21-396); assay: HDX-MS of rhAPOA4-His with and without antibody
T5 construct: Secreted from Expi293F cells and purified from the supernatant; Unfractionated mix of monomer and dimer; also called rhAPOA4-His; rhAPOA-His; not shown: C-terminal histidine tag
T5 sequence: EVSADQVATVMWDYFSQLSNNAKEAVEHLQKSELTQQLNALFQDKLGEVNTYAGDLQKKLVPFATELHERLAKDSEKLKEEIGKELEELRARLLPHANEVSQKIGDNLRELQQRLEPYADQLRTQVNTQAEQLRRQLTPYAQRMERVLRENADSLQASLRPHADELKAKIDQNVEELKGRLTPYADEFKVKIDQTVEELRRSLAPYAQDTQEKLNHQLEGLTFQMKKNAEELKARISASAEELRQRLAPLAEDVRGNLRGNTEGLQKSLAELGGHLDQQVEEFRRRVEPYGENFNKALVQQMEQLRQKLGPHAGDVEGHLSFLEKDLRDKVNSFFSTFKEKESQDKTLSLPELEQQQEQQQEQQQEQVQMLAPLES
Method: A solution in which about 10 μM of antibody No. 30 or antibody No. 33 were added to 10 μM of rhAPOA4-His and rhAPOA4-His and mixed therewith was diluted 20-fold with a PBS deuterium solution to start a deuteration reaction. As a control, a PBS solution was used.
After 1 minute, 10 minutes, 60 minutes, and 240 minutes at 23° C., an equivalent amount of 500 mM TCEP solution (pH 3 or less) containing cooled 2M guanidine hydrochloride was added to stop the reaction. After digesting the reaction solution with a pepsin column, peptide was separated and eluted by reversed-phase liquid chromatography using a C18 column, and LC-MS/MS measurement was performed with a mass spectrometer.
Each peptide derived from rhAPOA4-His was identified from the mass data, and the amount of deuterium exchange at each reaction time was calculated from the mass value. The peptide in which the amount of deuterium exchange was changed depending on the presence or absence of the antibody was extracted as an estimated epitope region.

APOA4 in human serum [5] = biological target: T2, APOA4 in human serum; assay: sandwich ELISA, capture antibody
Method: as §2

Measured: binding result

B1: anti-APOA4 monoclonal antibody No. 37 (antibody, IgG1, V domains shown)
VH: QVQLQQSGAELVKPGASVKISCKASGYTFSNYWLNWVKLRPGKGLEWIGQIYPGDGDTNYNGKFKGKATLTADKSSSRAYMQLSSLTSEDSAVYFCARRNNYVMDYWGQGTSVTVSS
VL: DIVMTQSHKFMSTSVGDRVSITCKASQDVGTSVAWYQQKLGQSPKLLINWASIRHTGVPDRFTGSGSGTDFSLTISNVQSEDLADHFCQQYSSYPFTFGSGTKLEIK
notes: Mouse hybridoma antibody; also called anti-human APOA4 monoclonal antibody No. 37; HRP-labeled antibody No. 37
binds: [1] | APOA4 in human serum [2] | rhAPOA4-His monomer | rhAPOA4-His dimer

B2: anti-APOA4 monoclonal antibody No. 33 (antibody, IgG1, V domains shown)
VH: QVHLQQSGAELVRPGSSVKISCKASGYAFSIYWMNWVRQRPGQGLEWIGQIYPGDGDTTYNGKFKGKATLTADKSSNTAYMHLSSLTSEDSAVFFCARRGDYVYDYWGQGTTLTVSS
VL: DIVMTQSHKLMSTSVGDRVSITCKASQDVGTAVAWYQQKPGQSPKLLIYWASTRHTGVPDRFTGSGSGTDFTLTIYNVQSEDLADYFCQQYSTYPFTFGSGTKLEIK
notes: Mouse hybridoma antibody; unlabelled in HDX-MS; also called anti-human APOA4 monoclonal antibody No. 33; HRP-labeled antibody No. 33
binds: APOA4 in human serum [3] | [4] | [1] | rhAPOA4-His monomer | rhAPOA4-His dimer

B3: anti-APOA4 monoclonal antibody No. 30 (antibody, IgG2b, V domains shown)
VH: EVQLQQSGPELVKPGASVKISCKASGYSFIGYFMSWVKQSHGKSLEWIGRINPYNGDTFYNQKFKGKATLTVDKSSSTAHMELLSLTSEDSAVYYCGRGIIGFDYWGQGTTLTVSS
VL: DIQMTQSPASLSASVGETVTITCRPSENIHSYLAWYHQKQGKSPQLLVYDATTLAEGVPSRFSGSGSGTQFFLKINSLQPEDFGSYYCQHHYVSPWTFGGGTKLEIK
notes: Mouse hybridoma antibody purified with Protein A; Used as capture antibody coated on the well in the sandwich ELISAs; also called anti-human APOA4 monoclonal antibody No. 30; Anti-human APOA monoclonal antibody No. 30
binds: [4] | APOA4 in human serum [5] | [1] | rhAPOA4-His monomer | rhAPOA4-His dimer
